# Measurements published in the NTF2 design screens of Basanta et al. (2020).
# Test: protease stability score; higher = more stable; yeast display proteolysis, trypsin and chymotrypsin;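 further: relative to predicted unfolded state with 0 unfolded-like and 1 meaning tenfold more protease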
row,Sequence,protease stability score
1,SEEEEQAKEAVRHFIHKWQTGDEDRLKELLDPHTKIDIGDKHIHGREEATKLIRNELHRIKNIRVELRDIEVRVYDGVIELHIRGLEKYNGQEVHVTIILIFRKINGQWIIQSEHFHID,1.31
2,SEEEEQAKRVIDHVTRAIHTGDEDVLRRQFDPHVKIEVGDKDIHGWETMYEILTHIRIETESDVKDFKVQGDKLIMDVRLRFTIRIDGVEIHRQTTTNIIVHKVNGRWQMKKVEIR,0.409
3,SEEEEQFKKVFEIVIRFIITGDEHSMLKNADPNARLEIGDKEVIGMENLLERLTRIIDQFKNVRIEFHVKDHDLQGDKLHLETEIVLKFDGRELRIILHIVWTKINGRWIITSLSER,1.17
4,SEEEEQLIRMADVFLHLFLTGDEDTLRSLFDPNAKLDINGVHSVGRENVKKAKEEWENKLGVNHHRLHEIRVVNGRTDLDGEVEWDGKRQRVRLVLVLINGRIRHEKIIFE,1.03
5,SEEEEQSRIAIELVKEVHDTGDEHLLKRLMDPNAKVDIGDKTHHGREIFSHLVHRWFHTLGVDHVKIHDLDFQGDFMIIHMVEVIGDKHVHVHIYTLKVNGRWYIRHLRVERR,0.967
6,SEEEEQSRKIFRLLYKVIETGDEDIFTKLFDPHARLIYNGKEYIGWEEAVQVLRHIRIDREELSVVRINNVNGQVHIHSVSRMDGEINGVEHHTRVELNFIVIKINGRWVIHTWEIRID,2.35
7,SEEEEQVERAIKLTEELIDTGNWKEISKLADPNARLNVNGREFHGREMVSENIKRFFEELGVDHIEVKHIRIQGNKVEVDTELRVGDKYHDLHLLFLKVNGQWLLKEVTVR,1.22
8,SEEEEQVERFLRLWLHALRTGDEDTHERLMDPNTRIQIGNFIFHGRERALKVVHHLIRQIDHIHDFDIHDVRVQGNKVHVDVRLNTHFDGRTIVLNLHIHIHKVDGRWLFTSLSRE,1.23
9,SEEEEQVKEFIERWITMVKTGDEDFARKMADPNVRIEIGDKILHGRENMEHYMRRVIDEWRITHIHVNDSKVYGEYIVNEVHIHVRQGDKHHTINWELHVKKVNGRWRLQNVHFG,2.24
10,SEEEEQVKELIKWLIEVWLTGNEEFIRDLADPHVRMHIEQGDKKVDSHGRETLLKDLERYRREIRFEYIEIHDIRIYNGRAEVDGRLFGLINGQRMELNVILIFVVVDGKIREIAVHIR,0.26
11,SEEEEQVTESFEHFFRARYTGDEHTLLRMMDPNVRVIVDGKDIHGWEEVIRYLVHIRIKRSELHDREIRVVNGRAIVHLDVHTDREVDGVRIETRIILILYAEKIDGRWVFKEVKIEVR,1.29
12,SEEEERAEELVRLWEHDLKTGNEHLLRELMDPNTRLVVNGRHTHGREHAVNILLQFVEEWRIESVHLHRWRVIGDKIDLDIHIHGRINGVEHHIKSILVLVKINGKWLIHTIVIH,1.02
13,SEEEERLRENLERWHRALYTGDEEHLFNLADPHARFEIIVDGRDVRIHGRENYLRWVEEFRKELGISRVHTELKSEHVINGRNDEDGLVHINGRSLRVHFHLDVVDGRTKKIHIYVR,0.779
14,SEEEERLRRFFEEFIKWHVTGDEEHLERLMDPNAKFIVNGVESHGWENTSRHLKELRIHELNIRRVEIVNGRIHISGLAKGEFNGRHRETTVHIHIVVIDGRVKEMSIEVR,2.48
15,SEEEERLRTIAEVLLHLLLTGDEEHLERLMDPHARYEQGDKHAIGREEVSHLFRRLLEHMRTREIHLHRWHSVNGVIYLDTRVIMEVNGRRIDTDTKVVVVVVDGKVRSMRNQFN,0.113
16,SEEEERMETLTRLLDHAWHTGDFDFLSKLLDPNTRVVQGEFHHHGRHALRKILHDLNRIMGVDHSDIEDREIQGDKIHIHVRIEVNGRVVDSHINIIVVDGRIKTVEMTIR,-0.216
17,SEEEERSERSLKHLLKTELTGNEEEFWRLADPNAKIEVIIDGVRISDHGREAIIRLWRFMGFDHLIFRHIHVHIQGDKMDVHIQGESRIGDKEMRTTIFLHVIKINGRWINHTLIIEQK,1.24
18,SEEEESAKIAIKVMLHSLHTGDEHTMSRLMDPNAREIINGRHNHGREVILEFLRRLGFTKVEIKDFRLTHMSVQGEFVFVHGTTNGEFNGVDTNVDLEIVVLKVDGRWTIQSVFYR,1.67

row,Sequence,protease stability score
1,SEEEESAKWFNHVRHEAERTGDEETLLRLLDPSVKSTYGDKTSHGRHEMEEIMKRLGVSRVHLDIRHVEVQGDKVNVDGLVEFDGQEMRVILIVLKIDGRWIAEHVIVH,-0.118
2,SEEEESARRAWEKILHVLETGDERDSRRLMDPDTKIEQGDKTEHGMEKIAKMITEWRFHDVKLTDMRVIGDKVEIDGTVRGEFDGREYKIHVFILVVKINGRWVIHKTVLG,1.06
3,SEEEESERKVLHKFTEAIRTGDEHTLENLIDPNVKIDAENRSHHGMEDWLKWLMELRRRADHIDFRIHSIHTQGDKLHVHSEIIVVQGDKHIHIEISMIINKVNGRWHIHHIELR,1.29
4,SEEEESIHEAQKVFLKIIMTGDWEEIARRLDPDVRLHIGNKKVHGREEAIEFFRKFLEEIRIHDEELKEFSSIDGRVHIRGEIDGTINGVRDRVEVHNVIWKFNGRWFISFREER,1.36
5,SEEEESIRHSWEIFETVLKTGDWTDYEKLFDPNDRTEIGDKRLHGMDLLIHILRRLGIKHNHAEMRIRSFEMIGDKAIIDGEIHVVLDFNGREVRSSSEILIIDRKINGRWLVESMHVI,1.21
6,SEEEESSEDATKLILRLWKTGDEHEWEHLFDPNVKVHIGDKHYVGMEIAVNTLHMLLRELGIDHIRLRDVKIFNGKVIIVFKIEVNGREFETHIISEKVNGRWRIKSVRFE,1.39
7,SEEEESSERATKILRELLKTGNFRLLLELMDPNARLHTHINGVNIHDHGRNLARWLVERIKNAVIKINDEEVRIFNGRVEVDIDGELLINGRNFRVHEHWIFRKIDGKWFFEEVEIRVE,2.16
8,SEEEESSHNAIKIWMETMETGNEELYLRLLDPHTRLDVNGKEFIGREVLKMFKKQIDHVKDVDVEHVEVQGDKVILNGRVRGDINGVERNTIEHLIVRKIDGRWRITEFSIR,0.94
9,SEEEESSKYAIELLRKVVETGDWRLIQRLADPHAKIEQGDKRLHGRETVTKHLIELGIDHIKFRDSRVQGDKVELDGEVDVNGQHRDTHILIEKIDGVWVWRRFEIK,0.97
10,SEEEESTHVWSRLFSHAIETGDEDLLERLIDPHVKLIVDGRELHGREELLTWIRRLFRHLGIDHMEVRIKNFDIINGRIRVEDELLLIVNGKEIRLETKVTVEKFDGKWHNQEVKIE,0.776
11,SEEEESWRRIAEEELRIRKTGDEDRFRELHDPSVKIDWNGQIIVGWEELHEILRHIAERYPNLRFEVTHSDVIDGRVHIDGRLNVNGVTLEFHIESVIVNGRTKSIRIEVR,0.524
12,SEEEETAYKVMEEVISAWLTGDEDLFNELADPDVRFELEFNGKKIDIIGRELVSKYWRDVIDHIRVEVVLRDYRMIDGRIETETEIYVEVGDKSHSVETRLHMEVIDGRLRTVKIKVR,2.22
13,SEEEETIRRVAEVLVHSILTGDEHFEENYLDPNARIDVNGKHFIGRERYLEAIRDLNEHLGWELKDVKLREVNVQGDKMHLKMEIKRHVNGKDLFIDMHVNVWKVNGKWLIRSLRYS,1.44
14,SEEEETLEELTRRLLHTWVTGDEQTLKDLADPDVRLIFNGQTYHGREQAERIIKELLDKLGVDRVHSEPRRFNIINGRIRMHVRIHYGDKEYIVHIIATKIDGRWTIKNVIFD,1.24
15,SEEEETLKRLAHHMYESYITGDERVIKHLVDPNARSRIGEFDDHGREATEELIRRIDHVHHIDIRDMKIQGNWLHLHVRVDGVVDGKRTEHDMEIIVLKVDGKWIVHSMIQR,1.05
16,SEEEETLRDALELVREVLETGDPHLSERLFDPDVRVIYGDKHYHGREYASEMIRFMGVKHFHIKSVRDVDGQVDIDTETHFNGKKYRMHLQTKKIDGKWHLRIIEFR,1.39
17,SEEEEVAWEAVEILSTFILTGDFESLNKLFDPHVRVRIGDKELHGRETTNKIFRKEREEHGIEIRHIHVHDVHVINGRIHADVEHKIRINGKEDSRRVEWIIEKYNGRWIVREIRVH,1.35
18,SEEEEVIDEAIHILEKHMQTGDWRVLRELADPNMRVHVNGRDLHGREQYIRWIEFLLKRVPNLKLDHFVLDHQHVVNGVAHLEGRLTYTINGVIHKTRTHFHIFKFDGQWRLESQSER,0.951
